This is an account of results in publication PMC11917138, “A naturally occurring standalone TrpB enzyme provides insights into allosteric communication within tryptophan synthase” (Protein Science : A Publication of the Protein Society, 2025).

Series [1] addresses plTrpB, tryptophan synthase β subunit (TrpB) from Pelodictyon luteolum (Pelodictyon luteolum).
Series [2] has as its target plTrpB‐con, plTrpB with the six LBCA-Res6 residues replaced by consensus residues (Pelodictyon luteolum).
In series [3] the target is plTrpB, tryptophan synthase β subunit (TrpB) from Pelodictyon luteolum (Pelodictyon luteolum). This is another data set of the same source.
Series [4] has as its target plTrpB‐con, plTrpB with the six LBCA-Res6 residues replaced by consensus residues (Pelodictyon luteolum). This is another data set of the same source.
The target of series [5] is plTrpB, tryptophan synthase β subunit (TrpB) from Pelodictyon luteolum (Pelodictyon luteolum). The series can be described thus: activity titration; apparent Kd; varying plTrpA added to 2 μM plTrpB or plTrpB-con, TrpB reaction rate read at 290 nm; 30°C, 50 mM potassium phosphate pH 7.5, 180 mM KCl, 40 μM PLP, 75 mM L-serine, 1 mM indole; hyperbolic fit; duplicates.
The target in series [6] is plTrpB‐con, plTrpB with the six LBCA-Res6 residues replaced by consensus residues (Pelodictyon luteolum). The description is as above.
Series [7] addresses plTrpB, tryptophan synthase β subunit (TrpB) from Pelodictyon luteolum (Pelodictyon luteolum). Briefly: SEC; analytical SEC, Superdex200 increase 10/300 GL; plTrpA 75 μM, plTrpB or plTrpB-con 50 μM, alone or mixed; 50 mM potassium phosphate pH 7.5, 300 mM KCl, 75 mM L-serine, 25°C. In general terms: In gel filtration, larger molecules generally elute earlier.
Substrate in the series “purified protein”: c1ccc2[nH]ccc2c1
Briefly: purified protein. As to conditions: saturating L-serine, 50 mM potassium phosphate pH 7.5, 180 mM KCl, 40 μM PLP, 30°C. Format: biochemical, Pelodictyon luteolum.

Where [8] appears, read: 1.5-fold molar excess of plTrpA.

As for “plTrpA, tryptophan synthase α subunit (TrpA) from Pelodictyon luteolum (from UniProt A0A1G7SSP5 1-275) (enzyme)”, in series [1], the k cat of the TrpB reaction of plTrpB with a 1.5-fold molar excess of plTrpA, 30°C is 0.93 s⁻¹. Further, the k cat of the TrpB reaction of plTrpB-con with a 1.5-fold molar excess of plTrpA, 30°C in series [2] came to 0.21 s⁻¹. In series [3], this molecule returned a fold activation of k cat of plTrpB by plTrpA of 2.7 fold, a fold activation of k cat/K M ^Ind of plTrpB by plTrpA of 1.6 fold and a fold activation of k cat/K M ^Ser of plTrpB by plTrpA of 9.8 fold. In series [4], the fold activation of k cat of plTrpB-con by plTrpA amounted to 23 fold, the fold activation of k cat/K M ^Ind of plTrpB-con by plTrpA is 3.6 fold and the fold activation of k cat/K M ^Ser of plTrpB-con by plTrpA is > 10000 fold. In series [5], the Kd is 8.5 µM. The Kd in series [6] was 9.9 µM.

On to “plTrpB, tryptophan synthase β subunit (TrpB) from Pelodictyon luteolum (from UniProt A0A1G7SST0 1-406) (enzyme)”, for which the stoichiometry N (commonly the number of molecules, sites or subunits per partner or assembly) in series [7] stood at 2.

B1: plTrpB (Pelodictyon luteolum DSM 273) (protein)
chain: MSTTAYSAPDSAGKFGAFGGRFTPETLMQNAAGLEAEYLKAKSDPEFQRTLEGLLGDYVGRPTPLYHAEGLSGMLGGAEVWLKREDLCHTGAHKINNALGQVLLARRMGKRRVIAETGAGQHGVATATVCALFNLQCVVYMGEEDIRRQAPNVARMKLLGAEVRPVSSGSRTLKDATSEAIRDWMNNPEETFYIIGSVVGMHPYPMIVRDFQAVIGRETRRQILDKAGRLPDVITACIGGGSNAVGMFYDFLPDAGSIELIGVEAAGEGLDRRHAASLTMGSPGVLHGAMTMLLQNEDGQIQEAHSISAGLDYPGVGPEHCHLQELGLVKYTSVTDADALSALRTLAETEGIICALESAHAVRYAITRAPEMAKDKIIIVNLSGRGDKDMGTIMEELNL
notes: full-length, C-terminal His6-tag kept, codon-optimized gene in pET21a, E. coli BL21 Gold (DE3); beta-beta dimer
In the case of B1, in the series “purified protein” (no plTrpA), the Km (as a rule, the concentration of substrate that gives half-maximal velocity) was determined as 39 ± 7 µM; the kcat – broadly, the number of substrate molecules converted per active site and unit of time at saturation – came to 0.35 ± 0.02 s⁻¹; the kcat/Km (usually the turnover number divided by the Michaelis constant) was 8970 ± 1720 M⁻¹ s⁻¹.

B2: plTrpA:plTrpB (Pelodictyon luteolum DSM 273) (protein)
chain: MSTTAYSAPDSAGKFGAFGGRFTPETLMQNAAGLEAEYLKAKSDPEFQRTLEGLLGDYVGRPTPLYHAEGLSGMLGGAEVWLKREDLCHTGAHKINNALGQVLLARRMGKRRVIAETGAGQHGVATATVCALFNLQCVVYMGEEDIRRQAPNVARMKLLGAEVRPVSSGSRTLKDATSEAIRDWMNNPEETFYIIGSVVGMHPYPMIVRDFQAVIGRETRRQILDKAGRLPDVITACIGGGSNAVGMFYDFLPDAGSIELIGVEAAGEGLDRRHAASLTMGSPGVLHGAMTMLLQNEDGQIQEAHSISAGLDYPGVGPEHCHLQELGLVKYTSVTDADALSALRTLAETEGIICALESAHAVRYAITRAPEMAKDKIIIVNLSGRGDKDMGTIMEELNL
notes: both full-length with C-terminal His6-tag, E. coli BL21 Gold (DE3); alpha-beta-beta-alpha complex, partly formed; with Tryptophan synthase alpha chain
On to B2, for which, in the series “purified protein” (setting [8]), the Km came to 65 ± 7 µM, the kcat is 0.93 ± 0.21 s⁻¹ and the kcat/Km is 14300 ± 3510 M⁻¹ s⁻¹.
